This is an account of results in patent publication US6359194 (Takeda / Millennium, dated 2002).

To fix the notation:
B3: GAL4 DNA-binding domain fusion to rchd534 (other, UniProt P04386 1-147, looked up)
chain: MKLLSSIEQACDICRLKKLKCSKEKPKCAKCLKNNWECRYSPKTKRSPLTRAHLTEVESRLERLEQLFLLIFPREDLDMILKMDSLQDIKALLTGLFVQDNVNKDAVTDRLASVETDMPLTLRQHRISATSSSEESSNKGQRQLTVSMSRMGKPIETQKSPPPPYSRLSPRDEYKPLDLSDSTLSYTETEATNSLITAPGEFSDASMSPDATKPSHWCSVAYWEHRTRVGRLYAVYDQAVSIFYDLPQGSGFCLGQLNLEQRSESVRRTRSKIGFGILLSKEPDGVWAYNRGEHPIFVNSPTLDAPGGRALVVRKVPPGYSIKVFDFERSGLQHAPEPDAADGPYDPNSVRISFAKGWGPCYSRQFITSCPCWLEILLNNPR
notes: Yeast two-hybrid bait; also called rchd534 bait protein
B4: GAL4 activation domain fusion to SV40 (other)
chain: PTYGTDEWEQWWNAFNEENLFCSEEMPSSDDEATADSQHSTPPKKKRKVEDPKDFPSELLSFLSHAVFSNRTLACFAIYTTKEKAALLYKKIMEKYSVTFISRHNSYNHNILFFLTPHRHRVSAINNYAQKLCTFSFLICKGVNKEYLMYSALTRDPFSVIEESLPGGLKEHDFNPEEAEETKQVSWKLVTEYAMETKCDDVLLLLGMYLEFQYSFEMCLKCIKKEQPSHYKYHEKHYANAAIFADSKNQKTICQQAVDTVLAKKRVDSLQLTREQMLTNRFNDLLDRMDIMFGSTGSADIEEWMAGVAWLHCLLPKMDSVVYDFLKCMVYNIPKKRYWLFKGPIDSGKTTLAAALLELCGGKALNVNLPLDRLNFELGVAIDQFLVVFEDVKGTGGESRDLPSGQGINNLDNLRDYLDGSVKVNLEKKHLNKRTQIFPPGIVTMNEYSVPKTLQARFVKQIDFRPKDYLKHCLERSEFLLEKRIIQSGIALLLMLIWYRPVAEFAQSIQSRIVEWKERLDKEFSLSVYQKMKFNVAMGIGVLDWLRNSDDDDEDSQENADKNEDGGEKNMEDSGHETGIDSQSQGSFQAPQSSQSVHDHNQPYHICRGFTCFKKPPTPPPEPET
notes: Two-hybrid control
B6: GAL4 DNA-binding domain fusion to Drosophila MAD (other, UniProt P04386 1-147, looked up)
chain: MKLLSSIEQACDICRLKKLKCSKEKPKCAKCLKNNWECRYSPKTKRSPLTRAHLTEVESRLERLEQLFLLIFPREDLDMILKMDSLQDIKALLTGLFVQDNVNKDAVTDRLASVETDMPLTLRQHRISATSSSEESSNKGQRQLTVSMDTDDVESNTSSAMSTLGSLFSFTSPAVKKLLGWKQGDEEEKWAEKAVDSLVKKLKKRKGAIEELERALSCPGQPSKCVTIPRSLDGRLQVSHRKGLPHVIYCRVWRWPDLQSHHELKPLELCQYPFSAKQKEVCINPYHYKRVESPVLPPVLVPRHSEFAPGHSMLQFNHVAEPSMPHNVSYSNSGFNSHSLSTSNTSVGSPSSVNSNPNSPYDSLAGTPPPAYSPSEDGNSNNPNDGGQLLDAQMGDVAQVSYSEPAFWASIAYYELNCRVGEVFHCNNNSVIVDGFTNPSNNSDRCCLGQLSNVNRNSTIENTRRHIGKGVHLYYVTGEVYAECLSDSAIFVQSRNCNYHHGFHPSTVCKIPPGCSLKIFNNQEFAQLLSQSVNNGFEAVYELTKMCTIRMSFVKGWGAEYHRQDVTSTPCWIEIHLHGPLQWLDKVLTQMGSPHNAISSVS
notes: Yeast two-hybrid bait; also called Dros; MAD; MAD bait protein

Assay in all cases: yeast two-hybrid mating assay (HIS3 and lacZ reporters)
Test [1] has as its target T1, GAL4 DNA-binding domain fusion to DPC4 (UniProt P04386 1-147; Q13485 1-552, limits assumed).
T1 construct: Yeast two-hybrid bait; also called DPC4 bait protein
An excerpt: (§1) Yeast expression plasmids encoding the GAL4 DNA-binding domain either alone or fused in frame to fchd540, rchd534, Drosophilia MAD, DPC4, or p53 were transformed into MATa two-hybrid screening strain HF7c. Yeast expression plasmnids encoding the GAL4 transcriptional activation domain alone and GAL4 activation domain fusions to rchd534 and SV40 were transformed into MATα two-hybrid screening strain Y1 87. p53 and SV40 interact with each other and should not interact with the experimental proteins. The HF7c transformants were propagated as stripes on semisolid synthetic complete medium lacking L-tryptophan and the Y187 transformants were grown as stripes on semisolid synthetic complete medium lacking L-leucine. Both sets of stripes were replica plated in the form of a grid onto a single rich YPAD plate and the haploid strains of opposite mating types were allowed to mate overnight at 30° C. The yeast strains on the mating plate were then replica plated to a synthetic complete plate lacking L-leucine and L-tryptophan to select for diploids and incubated at 30° C. overnight. Diploid strains on the synthetic complete plate lacking L-leucine and L-tryptophan were replica plated to a synthetic complete plate lacking L-leucine, L-tryptophan, and L-histidine to assay HIS3 expression and a paper filter on a synthetic complete plate lacking L-leucine and L-tryptophan. The next day the paper filter was subjected to the paper filter beta-galactosidase assay to measure expression of the lacZ reporter gene. HIS3 expression was scored after 3 days of growth at 30° C.
(§2) It was confirmed that these rchd534 cDNAs encode proteins that physically interact specifically with fchd540. Yeast expression plasmids encoding the GAL4 DNA-binding domain either alone or fused in frame to fchd540, rchd534, Drosophila MAD, DPC4, and p53 were transformed into MATa two-hybrid screening strain HF7c. Yeast expression plasmids encoding the GAL4 transcriptional activation domain (GAL4 AD) alone and GAL4 activation domain fusions to tchv03a, tchvR4A and SV40 were transformed into MATα two-hybrid screening strain Y1 87. p53 and SV40 interact with each other and should not interact with the experimental proteins. The HF7c transformants were propagated as stripes on semi-solid synthetic complete medium lacking […].

In test [2] the target is B6.
From the text: as §1, §2

For test [3], the target named is B3.
From the text: as §1, §2

Test [4] has as its target B4.
From the text: as §1, §2

B1: GAL4 transcriptional activation domain-rchd534 fusion (other, human, UniProt O43541-2 1-235, looked up, not shown: large carriers)
chain: MSRMGKPIETQKSPPPPYSRLSPRDEYKPLDLSDSTLSYTETEATNSLITAPGEFSDASMSPDATKPSHWCSVAYWEHRTRVGRLYAVYDQAVSIFYDLPQGSGFCLGQLNLEQRSESVRRTRSKIGFGILLSKEPDGVWAYNRGEHPIFVNSPTLDAPGGRALVVRKVPPGYSIKVFDFERSGLQHAPEPDAADGPYDPNSVRISFAKGWGPCYSRQFITSCPCWLEILLNNPR
notes: Yeast two-hybrid fish; also called rchd534 fish protein; Smad6
Consider B1, for which the binding result in test [1] and in test [2] was “no binding” throughout.

B2: tchv03A (GAL4 activation domain fusion to amino acids 17-235 of rchd534) (other, not shown: large carriers)
chain: PYSRLSPRDEYKPLDLSDSTLSYTETEATNSLITAPGEFSDASMSPDATKPSHWCSVAYWEHRTRVGRLYAVYDQAVSIFYDLPQGSGFCLGQLNLEQRSESVRRTRSKIGFGILLSKEPDGVWAYNRGEHPIFVNSPTLDAPGGRALVVRKVPPGYSIKVFDFERSGLQHAPEPDAADGPYDPNSVRISFAKGWGPCYSRQFITSCPCWLEILLNNPR
notes: Library clone from the human breast two-hybrid library; also called tchv03A fish protein
On to B2, for which the binding result in test [1], in test [3] and in test [2] was “no binding” each time. As to B3, the binding result in test [4] is “no binding”. B4: the binding result in test [1] was “no binding”.

B5: tchvR4A (GAL4 activation domain fusion to amino acids 25-235 of rchd534) (other, not shown: large carriers)
chain: DEYKPLDLSDSTLSYTETEATNSLITAPGEFSDASMSPDATKPSHWCSVAYWEHRTRVGRLYAVYDQAVSIFYDLPQGSGFCLGQLNLEQRSESVRRTRSKIGFGILLSKEPDGVWAYNRGEHPIFVNSPTLDAPGGRALVVRKVPPGYSIKVFDFERSGLQHAPEPDAADGPYDPNSVRISFAKGWGPCYSRQFITSCPCWLEILLNNPR
notes: Library clone from the human breast two-hybrid library; also called tchvR4A fish protein
Regarding B5, the binding result in test [1], in test [3] and in test [2] was “no binding” in each case.

In the case of B6, the binding result in test [4] is “no binding”.

B7: GAL4 DNA-binding domain-fchd540 fusion (other, UniProt P04386 1-147, looked up)
chain: MKLLSSIEQACDICRLKKLKCSKEKPKCAKCLKNNWECRYSPKTKRSPLTRAHLTEVESRLERLEQLFLLIFPREDLDMILKMDSLQDIKALLTGLFVQDNVNKDAVTDRLASVETDMPLTLRQHRISATSSSEESSNKGQRQLTVSMFRTKRSALVRRLWRSRAPGGEDEEEGAGGGGGGGELRGEGATDSRAHGAGGGGPGRAGCCLGKAVRGAKGHHHPHPPAAGAGAAGGAEADLKALTHSVLKKLKERQLELLLQAVESRGGTRTACLLLPGRLDCRLGPGAPAGAQPAQPPSSYSLPLLLCKVFRWPDLRHSSEVKRLCCCESYGKINPELVCCNPHHLSRLCELESPPPPYSRYPMDFLKPTADCPDAVPSSAETGGTNYLAPGGLSDSQLLLEPGDRSHWCVVAYWEEKTRVGRLYCVQEPSLDIFYDLPQGNGFCLGQLNSDNKSQLVQKVRSKIGCGIQLTREVDGVWVYNRSSYPIFIKSATLDNPDSRTLLVHKVFPGFSIKAFDYEKAYSLQRPNDHEFMQQPWTGFTVQISFVKGWGQCYTRQFISSCPCWLEVIFNSR
notes: Yeast two-hybrid bait; also called fchd540 bait protein; pGBT9-fchd540
For the molecule B7, in test [4], the binding result is recorded as “no binding”.
